Tests used:
[1] = target: Recombinant human BAFF trimer (Boehringer Ingelheim Pharmaceuticals, Inc.) (human, UniProt Q9Y275 134-285, limits assumed); test: cell-based or functional assay
[2] = target: Recombinant human BAFF 60mer (Boehringer Ingelheim Pharmaceuticals, Inc.) (human, UniProt Q9Y275 134-285, limits assumed); test: cell-based or functional assay

B1: Compound O (bispecific antibody, human IgG1, kappa, L234A L235A)
chain 1: DIQMTQSPSSLSASVGDRVSITCKASQNAGIDVAWFQQKPGKAPKLLIYSKSNRYTGVPSRFSGSGSGTDFTLTISSLQPEDFADYYCLQYRSYPRTFGGGTKLEIKGGGSGGGGQVQLVQSGAEVKKPGSSVKVSCKASGYTFTDQTIHWMRQAPGQGLEWIGYIYPRDDSPKYNENFKGKVTITADKSTSTAYMELSSLRSEDTAVYYCAIPDRSGYAWFIYWGQGTLVTVSSLGGGSGASTKGPSVFPLAPSSKSTSGGTAALGCLVKDYFPEPVTVSWNSGALTSGVHTFPAVLQSSGLYSLSSVVTVPSSSLGTQTYICNVNHKPSNTKVDKRVEPKSCDKTHTCPPCPAPEAAGGPSVFLFPPKPKDTLYITREPEVTCVVVDVSHEDPEVKFNWYVDGVEVHNAKTKPREEQYNSTYRVVSVLTVLHQDWLNGKEYKCKVSNKALPAPIEKTISKAKGQPREPQVYTLPPSREEMTKNQVSLTCLVKGFYPSDIAVEWESNGQPENNYKTTPPVLDSDGSFFLYSKLTVDKSRWQQGNVFSCSVMHEALHNHYTQKSLSLSPG
chain 2: DIQMTQSPSSLSASVGDRVTITCKASRDVAIAVAWYQQKPGKVPKLLIYWASTRHTGVPSRFSGSGSRTDFTLTISSLQPEDVADYFCHQYSSYPFTFGSGTKLEIKGGGSGGGGQVQLVQSGAEVKKPGASVKVSCKASGYSFSTFFIHWVRQRPGQGLEWIGRIDPNSGATKYNEKFESKVTLTRDTSISTAYMELSRLRSDDTAVYYCARGEDLLIRTDALDYWGQGTSVTVSSLGGGSGRTVAAPSVFIFPPSDEQLKSGTASVVCLLNNFYPREAKVQWKVDNALQSGNSQESVTEQDSKDSTYSLSSTLTLSKADYEKHKVYACEVTHQGLSSPVTKSFNRGEC
IC50, NFkB luciferase reporter, human BAFFR-CHO cells [1]: 27 pM | IC90, NFkB luciferase reporter, human BAFFR-CHO cells [1]: 119 pM | IC50, NFkB luciferase reporter, human BAFFR-CHO cells [2]: 5 pM | IC90, NFkB luciferase reporter, human BAFFR-CHO cells [2]: 6 pM

B2: Compound R (bispecific antibody, human IgG4 S228P, kappa)
chain 1: DIQMTQSPSSLSASVGDRVSITCKASQNAGIDVAWFQQKPGKAPKLLIYSKSNRYTGVPSRFSGSGSGTDFTLTISSLQPEDFATYYCLQYRSYPRTFGQGTKLEIKGGGSGGGGQVQLVQSGAEVKKPGSSVKVSCKASGYTFTDQTIHWMRQAPGQGLEWIGYIYPRDDSPKYNENFKGKVTITADKSTSTAYMELSSLRSEDTAVYYCAIPDRSGYAWFIYWGQGTLVTVSSLGGGSGASTKGPSVFPLAPCSRSTSESTAALGCLVKDYFPEPVTVSWNSGALTSGVHTFPAVLQSSGLYSLSSVVTVPSSSLGTKTYTCNVDHKPSNTKVDKRVESKYGPPCPPCPAPEFLGGPSVFLFPPKPKDTLYITREPEVTCVVVDVSQEDPEVQFNWYVDGVEVHNAKTKPREEQFNSTYRVVSVLTVLHQDWLNGKEYKCKVSNKGLPSSIEKTISKAKGQPREPQVYTLPPSQEEMTKNQVSLTCLVKGFYPSDIAVEWESNGQPENNYKTTPPVLDSDGSFFLYSRLTVDKSRWQEGNVFSCSVMHEALHNHYTQKSLSLSLG
chain 2: DIQMTQSPSSLSASVGDRVTITCKASRDVAIAVAWYQQKPGKVPKLLIYWASTRHTGVPSRFSGSGSRTDFTLTISSLQPEDVADYFCHQYSSYPFTFGSGTKLEIKGGGSGGGGQVQLVQSGAEVKKPGASVKVSCKASGYSFSTFFIHWVRQAPGQGLEWIGRIDPNSGATKYNEKFESRVTMTRDTSISTAYMELSRLRSDDTAVYYCARGEDLLIRTDALDYWGQGTSVTVSSLGGGSGRTVAAPSVFIFPPSDEQLKSGTASVVCLLNNFYPREAKVQWKVDNALQSGNSQESVTEQDSKDSTYSLSSTLTLSKADYEKHKVYACEVTHQGLSSPVTKSFNRGEC
IC50, NFkB luciferase reporter, human BAFFR-CHO cells [1]: 30 pM | IC90, NFkB luciferase reporter, human BAFFR-CHO cells [1]: 139 pM | IC50, NFkB luciferase reporter, human BAFFR-CHO cells [2]: 5 pM | IC90, NFkB luciferase reporter, human BAFFR-CHO cells [2]: 16 pM

B3: Compound Q (bispecific antibody, human IgG1, kappa, L234A L235A)
chain 1: DIQMTQSPSSLSASVGDRVSITCKASQNAGIDVAWFQQKPGKAPKLLIYSKSNRYTGVPSRFSGSGSGTDFTLTISSLQPEDFATYYCLQYRSYPRTFGQGTKLEIKGGGSGGGGQVQLVQSGAEVKKPGSSVKVSCKASGYTFTDQTIHWMRQAPGQGLEWIGYIYPRDDSPKYNENFKGKVTITADKSTSTAYMELSSLRSEDTAVYYCAIPDRSGYAWFIYWGQGTLVTVSSLGGGSGASTKGPSVFPLAPSSKSTSGGTAALGCLVKDYFPEPVTVSWNSGALTSGVHTFPAVLQSSGLYSLSSVVTVPSSSLGTQTYICNVNHKPSNTKVDKRVEPKSCDKTHTCPPCPAPEAAGGPSVFLFPPKPKDTLYITREPEVTCVVVDVSHEDPEVKFNWYVDGVEVHNAKTKPREEQYNSTYRVVSVLTVLHQDWLNGKEYKCKVSNKALPAPIEKTISKAKGQPREPQVYTLPPSREEMTKNQVSLTCLVKGFYPSDIAVEWESNGQPENNYKTTPPVLDSDGSFFLYSKLTVDKSRWQQGNVFSCSVMHEALHNHYTQKSLSLSPG
chain 2: DIQMTQSPSSLSASVGDRVTITCKASRDVAIAVAWYQQKPGKVPKLLIYWASTRHTGVPSRFSGSGSRTDFTLTISSLQPEDVADYFCHQYSSYPFTFGSGTKLEIKGGGSGGGGQVQLVQSGAEVKKPGASVKVSCKASGYSFSTFFIHWVRQAPGQGLEWIGRIDPNSGATKYNEKFESRVTMTRDTSISTAYMELSRLRSDDTAVYYCARGEDLLIRTDALDYWGQGTSVTVSSLGGGSGRTVAAPSVFIFPPSDEQLKSGTASVVCLLNNFYPREAKVQWKVDNALQSGNSQESVTEQDSKDSTYSLSSTLTLSKADYEKHKVYACEVTHQGLSSPVTKSFNRGEC
IC50, NFkB luciferase reporter, human BAFFR-CHO cells [1]: 26 pM | IC90, NFkB luciferase reporter, human BAFFR-CHO cells [1]: 108 pM | IC50, NFkB luciferase reporter, human BAFFR-CHO cells [2]: 5 pM | IC90, NFkB luciferase reporter, human BAFFR-CHO cells [2]: 13 pM

B4: Compound P (bispecific antibody, human IgG4 S228P, kappa)
chain 1: DIQMTQSPSSLSASVGDRVSITCKASQNAGIDVAWFQQKPGKAPKLLIYSKSNRYTGVPSRFSGSGSGTDFTLTISSLQPEDFADYYCLQYRSYPRTFGGGTKLEIKGGGSGGGGQVQLVQSGAEVKKPGSSVKVSCKASGYTFTDQTIHWMRQAPGQGLEWIGYIYPRDDSPKYNENFKGKVTITADKSTSTAYMELSSLRSEDTAVYYCAIPDRSGYAWFIYWGQGTLVTVSSLGGGSGASTKGPSVFPLAPCSRSTSESTAALGCLVKDYFPEPVTVSWNSGALTSGVHTFPAVLQSSGLYSLSSVVTVPSSSLGTKTYTCNVDHKPSNTKVDKRVESKYGPPCPPCPAPEFLGGPSVFLFPPKPKDTLYITREPEVTCVVVDVSQEDPEVQFNWYVDGVEVHNAKTKPREEQFNSTYRVVSVLTVLHQDWLNGKEYKCKVSNKGLPSSIEKTISKAKGQPREPQVYTLPPSQEEMTKNQVSLTCLVKGFYPSDIAVEWESNGQPENNYKTTPPVLDSDGSFFLYSRLTVDKSRWQEGNVFSCSVMHEALHNHYTQKSLSLSLG
chain 2: DIQMTQSPSSLSASVGDRVTITCKASRDVAIAVAWYQQKPGKVPKLLIYWASTRHTGVPSRFSGSGSRTDFTLTISSLQPEDVADYFCHQYSSYPFTFGSGTKLEIKGGGSGGGGQVQLVQSGAEVKKPGASVKVSCKASGYSFSTFFIHWVRQRPGQGLEWIGRIDPNSGATKYNEKFESKVTLTRDTSISTAYMELSRLRSDDTAVYYCARGEDLLIRTDALDYWGQGTSVTVSSLGGGSGRTVAAPSVFIFPPSDEQLKSGTASVVCLLNNFYPREAKVQWKVDNALQSGNSQESVTEQDSKDSTYSLSSTLTLSKADYEKHKVYACEVTHQGLSSPVTKSFNRGEC
IC50, NFkB luciferase reporter, human BAFFR-CHO cells [1]: 19 pM | IC90, NFkB luciferase reporter, human BAFFR-CHO cells [1]: 88 pM | IC50, NFkB luciferase reporter, human BAFFR-CHO cells [2]: 2 pM | IC90, NFkB luciferase reporter, human BAFFR-CHO cells [2]: 9 pM

Reference: patent US20210107998A1 (Boehringer Ingelheim, published 2021)
